Assay results published in US20190100591A1 (ITEOS BELGIUM, published 2019).

T1: recombinant human TIGIT protein (human, UniProt Q495A1 22-141, limits assumed)
T1 construct: also called hTIGIT (Creative Biomart); antigen
T1 sequence (looked up): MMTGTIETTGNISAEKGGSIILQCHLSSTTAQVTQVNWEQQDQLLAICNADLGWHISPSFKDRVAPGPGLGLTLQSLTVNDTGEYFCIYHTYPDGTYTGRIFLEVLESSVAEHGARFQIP

T2: human TIGIT expressed on cells (human, UniProt Q495A1 22-244)
T2 construct: whole, on cells; on Jurkat E6.1 cells transduced with human TIGIT, on Promega TIGIT effector cells or on human primary T cells; the cell is named under assay; also called hTIGIT; Jurkat-hTIGIT
T2 sequence (looked up): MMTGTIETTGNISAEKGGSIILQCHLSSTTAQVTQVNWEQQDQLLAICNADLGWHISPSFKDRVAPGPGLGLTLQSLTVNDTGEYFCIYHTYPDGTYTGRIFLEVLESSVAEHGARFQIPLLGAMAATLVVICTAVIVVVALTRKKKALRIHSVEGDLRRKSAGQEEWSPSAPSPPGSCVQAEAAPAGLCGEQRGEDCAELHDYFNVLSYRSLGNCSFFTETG


How the values were obtained:
[1] = target: Polyspecificity Reagent (PSR); assay: flow cytometry, IgG presented on yeast, biotinylated PSR, normalised MFI
[2] = target: T1, recombinant human TIGIT protein; assay: Biacore T200 SPR, IgG captured, steady state model
[3] = target: T2, human TIGIT expressed on cells; assay: flow cytometry, Jurkat-hTIGIT, MFI; end of the range tied to 313M32 by Table 16
[4] = target: T2, human TIGIT expressed on cells; assay: flow cytometry, Jurkat-hTIGIT, MFI
Method: Antibodies were incubated with the cells for 20 min at 4° C. in FACS buffer. […] Fluorescence intensity was analysed using LSR BD Fortessa and cell binding was recorded as the median fluorescence intensity of PE in cells expressing TIGIT at their surface.
The half-maximal concentration of binding (EC50) to Jurkat-hTIGIT was calculated using a four-variable curve-fit equation in Prism.

[5] = target: T2, human TIGIT expressed on cells; assay: FACS competition on Jurkat-hTIGIT; competitor CD155-His 15 ug/ml
[6] = target: T2, human TIGIT expressed on cells; assay: flow cytometry, CD8+ T cells from cancer patient PBMC, MFI on TIGIT+CD8+
Method: Cells were distributed at 1×10^5 cells per well. […] Then, cells were washed and incubated with the following antibodies and life viability dye (LVD) mix: anti-CD4-PercP-Cy5.5 (clone A161A1, BioLegend 357414); anti-CD8-BV510 (clone SK1, BD Bioscience 563919) and LVD efluor 520 (eBioscience 65-0867-14). Cells were washed and fixed and surface staining was quantified using BD LSR Fortessa. Flow cytometry data was analysed using FlowJo V10.1. TIGIT MFI on gated LVD-TIGIT+CD8+ cells was used to calculate EC50 values.

[7] = target: T2, human TIGIT expressed on cells; assay: flow cytometry, human primary CD8+ T cells (healthy PBMC), MFI on TIGIT+CD8+

Row | Polyspecificity Reagent (PSR) Score (0-1) [1] | Binder | further results
1 | 0 score (0-1) | anti-TIGIT antibody clone 26493 (antibody, V domains shown) VH: EVQLVESGGGLVQPGRSLRLSCAASGFTFGDYAMHWVRQAPGKGLEWVSGITWNSGSIGYADSVKGRFTISRDNAKNSLYLQMNSLRAEDTALYYCAKPVPKSRGLDVWGQGTMVTVSS VL: DIQLTQSPSSVSASVGDRVTITCRASQGISSWLAWYQQKPGKAPKLLIYGASSLQSGVPSRFSGSGSGTDFTLTISSLQPEDFATYYCQQAFYLPWTFGGGTKVEIK | –
2 | 0.12 score (0-1) | anti-TIGIT antibody clone 29527 (antibody, V domains shown) VH: QVQLVESGGGVVQPGRSLRLSCAASGFTFSSSYMHWVRQAPGKGLEWVAVIGADGSNKYYADSVEGRFTISRDNSKNTLYLQMNSLRAEDTALYYCAKPVPRRRGLDVWGQGTMVTVSS VL: DIQLTQSPSSVSASVGDRVTITCRASQGISSWLAWYQQKPGKAPKLLIYGASSLQSGVPSRFSGSGSGTDFTLTISSLQPEDFATYYCQQAFYLPWTFGGGTKVEIK | –
3 | 0.12 score (0-1) | anti-TIGIT antibody clone 29523 (antibody, V domains shown) VH: EVQLVESGGGVVQPGRSLRLSCAASGFTFGSYYMHWVRQAPGKGLEWVAVIWPDGSNKLYADSVKGRFTISRDNSKNTLYLQMNSLRAEDTALYYCAKPVPKSRALDVWGQGTMVTVSS VL: DIQLTQSPSSVSASVGDRVTITCRASQGISSWLAWYQQKPGKAPKLLIYGASSLQSGVPSRFSGSGSGTDFTLTISSLQPEDFATYYCQQAFYLPWTFGGGTKVEIK | –
4 | 0.32 score (0-1) | anti-TIGIT antibody clone 29520 (antibody, V domains shown) VH: QVQLVESGGGLVQPGRSLRLSCAASGFTFRDYAMHWVRQAPGKGLEWVSGITWNSGLIGYADSVKGRFTISRDNAKNSLYLQMNSLRAEDTALYYCAKPVPRLRGLDVWGQGTMVTVSS VL: DIQLTQSPSSVSASVGDRVTITCRASQGISSWLAWYQQKPGKAPKLLIYGASSLQSGVPSRFSGSGSGTDFTLTISSLQPEDFATYYCQQAFYLPWTFGGGTKVEIK | –
5 | 0 score (0-1) | anti-TIGIT antibody clone 26486 (antibody, V domains shown) VH: QVQLQESGPGLVKPSETLSLTCAVSGYSISSGYYWAWIRQPPGKGLEWIGSIYHSGSTYYNPSLKSRVTISVDTSKNQFSLKLSSVTAADTAVYYCAIEGANYYDFGYVAFDIWGQGTMVTVSS VL: EIVMTQSPATLSVSPGERATLSCRASQSVSSNLAWYQQKPGQAPRLLIYGASTRATGIPARFSGSGSGTEFTLTISSLQSEDFAVYYCQQSPPWPRTFGGGTKVEIK | –
6 | 0 score (0-1) | anti-TIGIT antibody clone 29494 (antibody, V domains shown) VH: QVQLQESGPGLVKPSETLSLTCTVSGGSISSGSYYLAWIRQPPGKGLEWIGSIFRSGSTYYNPSLESRVTISVDTSKNQFSLKLSSVTAADTAVYYCAIEGANFKDFGYVAFDIWGQGTMVTVSS VL: EIVMTQSPATLSVSPGERATLSCRASQSVSSNLAWYQQKPGQAPRLLIYGASTRATGIPARFSGSGSGTEFTLTISSLQSEDFAVYYCQQSPPWPRTFGGGTKVEIK | –
7 | 0 score (0-1) | anti-TIGIT antibody clone 31288 (antibody, V domains shown) VH: QLQLQESGPGLVKPSETLSLTCTVSGGSISSGSYYLAWIRQPPGKGLEWIGSIFRSGSTYYNPSLESRVTISVDTSKNQFSLKLSSVTAADTAVYYCAIEGANFKDFGYVAFDIWGQGTTVTVSS VL: EIVMTQSPATLSVSPGERATLSCRASQSVSSNLAWYQQKPGQAPRLLIYGASTRATGIPARFSGSGSGTEFTLTISSLQSEDFAVYYCQQSPPWPRTFGGGTKVEIK | –
8 | 0 score (0-1) | anti-TIGIT antibody clone 32931 (antibody, V domains shown) VH: QLQLQESGPGLVKPSETLSLTCTVSGGSISSGSYYLAWIRQPPGKGLEWIGSIFRSGSTYYNPSLESRVTISVDTSKNQFSLKLSSVTAADTAVYYCAIEGANFKDFGYVAFDIWGQGTTVTVSS VL: EIVMTQSPATLSVSPGERATLSCRASKSVSSNLAWYQQKPGQAPRLLIYFASTRATGIPARFSGSGSGTEFTLTISSLQSEDFAVYYCQQTSPWPRTFGGGTKVEIK | –
9 | 0.1 score (0-1) | anti-TIGIT antibody clone 29499 (antibody, V domains shown) VH: QLQLQESGPGLVKPSETLSLTCTVSGGSISSSRYYWAWIRQPPGKGLEWIGSIGTSGSTYYNPSLKSRVTISVDTSKNQFSLKLSSVTATDTAVYYCAIEGANFRDFGYVAFDIWGQGTMVTVSS VL: EIVMTQSPATLSVSPGERATLSCRASQSVSSNLAWYQQKPGQAPRLLIYGASTRATGIPARFSGSGSGTEFTLTISSLQSEDFAVYYCQQSPPWPRTFGGGTKVEIK | –
10 | – | anti-TIGIT antibody 313M32 (antibody, V domains shown) VH: QVQLQESGPGLVKPSETLSLTCAVSGYSITSDYAWNWIRQPPGKGLEWIGYISYSGSTSYNPSLRSRVTISRDTSKNQFFLKLSSVTAADTAVYYCARRQVGLGFAYWGQGTLVTVSS VL: DIQMTQSPSSLSASVGDRVTITCKASQDVSTAVAWYQQKPGKAPKLLIYSASYRYTGVPSRFSGSGSGTDFTFTISSLQPEDIATYYCQQHYSTPWTFGGGTKVEIK | Kd [2]: 10.1 nM; EC50 [3]: 0.445 nM; EC50 [4]: 0.44 nM; Fold change of EC50 over EC50 of best clone (31282_wu) [4]: 4.2 fold; Fold change of IC50 over IC50 of best clone (31282_up) [5]: 16.7 fold; IC50 [5]: 0.65 nM; EC50 [6]: 1 nM; Fold change of EC50 over EC50 of best clone (31282) [6]: 8.3 fold; EC50 [7]: 1.45 nM; Fold change of EC50 over EC50 of best clone (31282_wu) [7]: 7.5 fold
11 | 0.01 score (0-1) | anti-TIGIT antibody clone 29513 (antibody, V domains shown) VH: QVQLVQSGAEVKKPGSSVKVSCKASGGTFQNYAISWVRQAPGQGLEWMGVIVPIFGTANYAQKFQGRVTVTADESTSTAYMELSSLRSEDTAVYYCARLHLGQKAYYGMDVWGQGTTVTVSS VL: DIQMTQSPSSLSASVGDRVTITCRASQSISSYLNWYQQKPGKAPKLLIYAASSLQSGVPSRFSGSGSGTDFTLTISSLQPEDFATYYCQQRYVFPPTFGGGTKVEIK | –
